Laboratory results reported in patent CN101248088A (LILLY CO ELI, dated 2008).

Tests used:
[1] = molecular target: 人IL-23 (human IL-23, p19/p40 heterodimer) (human) (UniProt P29460); assay: cell-based or functional assay
[2] = molecular target: 人IL-23 (human IL-23, p19/p40 heterodimer) (human) (UniProt P29460); assay: SPR (BIAcore), antibody captured on protein A CM5 chip, human IL-23 in flow, HBS-EP pH 7.4, 25 °C
[3] = molecular target: T1, 人IL-23 (human IL-23, p19/p40 heterodimer) (human, UniProt P29460 23-328); assay: cell-based or functional assay
T1 sequence 1: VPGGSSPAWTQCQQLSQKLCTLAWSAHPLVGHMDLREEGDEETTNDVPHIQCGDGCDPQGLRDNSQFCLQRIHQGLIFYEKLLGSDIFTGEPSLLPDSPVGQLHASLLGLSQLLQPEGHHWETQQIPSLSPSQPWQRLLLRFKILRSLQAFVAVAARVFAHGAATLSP
T1 sequence 2: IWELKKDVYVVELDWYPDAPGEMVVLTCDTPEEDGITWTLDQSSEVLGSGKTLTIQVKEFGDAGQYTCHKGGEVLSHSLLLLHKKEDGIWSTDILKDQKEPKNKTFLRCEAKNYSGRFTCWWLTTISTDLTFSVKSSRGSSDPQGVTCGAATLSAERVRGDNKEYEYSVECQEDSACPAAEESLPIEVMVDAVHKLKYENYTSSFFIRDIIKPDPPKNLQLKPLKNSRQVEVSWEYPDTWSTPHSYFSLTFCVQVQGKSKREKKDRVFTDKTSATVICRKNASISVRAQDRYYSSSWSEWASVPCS

[4] = molecular target: T1, 人IL-23 (human IL-23, p19/p40 …); assay: SPR (BIAcore)

Molecule: MAB1290 (小鼠抗人IL-23单克隆抗体, 安迪生物科技 R&D Systems) (antibody)
- IC50, 小鼠脾细胞测定法 (IL-23-stimulated IL-17 secretion of mouse splenocytes) [1]: 2.8 nM
- Kd [2]: 21.4 nM
- koff [2]: 0.000768 s⁻¹
- kon [2]: 36800 M⁻¹ s⁻¹

B1: MAbQF20 (antibody, V domains shown)
VH: QVQLVQSGAEVKKPGASVKVSCKVSGKTFWSYGINWVRQAPGKGLEWMGYIYIGTGYTEPNPKYKGRVTMTEDTSTDTAYMELSSLRSEDTAVYYCATIGGYYGNFADWGQGTTVTVSS
VL: DVVMTQSPLSLPVTLGQPASISCRSSQSLLISGGKTYLNWFQQRPGQSPRRLIYLVSKLDQGVPDRFSGSGSGTDFTLKISRVEAEDVGVYYCWQGTYFPLTFGQGTKLEIK
notes: Humanised antibody
- IC50, 小鼠脾细胞测定法 [3]: < 0.02 nM
- IC50, 小鼠脾细胞测定法 (IL-23-stimulated IL-17 secretion of mouse splenocytes) [3]: 0.002 nM
- Kd [4]: < 0.16 nM

B2: MAbQF37 (antibody, V domains shown)
VH: QVQLVQSGAEVKKPGASVKVSCKVSGKTFWSYGINWVRQAPGKGLEWMGYIYIGTGYTEPNPKYKGRVTMTEDTSTDTAYMELSSLRSEDTAVYYCATIGGYYGNFDQWGQGTTVTVSS
VL: DVVMTQSPLSLPVTLGQPASISCRSSQSLLISGGKTYLNWFQQRPGQSPRRLIYLVSKLDQGVPDRFSGSGSGTDFTLKISRVEAEDVGVYYCWQGTYFPLTFGQGTKLEIK
notes: Humanised antibody
- IC50, 小鼠脾细胞测定法 [3]: < 0.02 nM
- IC50, 小鼠脾细胞测定法 (IL-23-stimulated IL-17 secretion of mouse splenocytes) [3]: 0.002 nM
- Kd [4]: < 0.16 nM
